Holding throughout (conditions): both partners purified
In test [1] the target is T1, transglutaminase 2, wild type (UniProt P21980).
T1 construct: transglutaminase 2 (TG2); For the complex, native PAGE and SAXS the protein was incubated with 1 mM GDP (closed conformation); SASBDB SASDA28, SASDA38 and SASDA48 hold the SAXS data of TG2-GDP, the Fab and the complex; also called TG2; WT TG2
Kind of test: SPR; BIAcore 3000; anti-TG2 antibodies amine-coupled to CM5 chips (700-2300 RU); WT or mutant TG2 injected in HBS-EP (0.01 M HEPES, 0.15 M NaCl, 2 mM EDTA, 0.05% P20, pH 7.4), 40 ul/min, 25 °C; relative binding at 500 nM, kinetics from serial dilutions (15.6/156-500/5000 nM); 1:1 Langmuir model; reference cell with a non-TG2 reactive antibody. On the technique in general: SPR reads the build-up and loss of mass on a sensor chip optically.

Test [2] addresses T2, transglutaminase 2 mutant R19S (Homo sapiens (assumed; human TG2 …, UniProt P21980, R19S).
T2 construct: transglutaminase 2 (TG2); also called TG2 R19S
The description is as above.

In test [3] the target is T3, transglutaminase 2 mutant K30A (Homo sapiens (assumed; human TG2 …, UniProt P21980, K30A).
T3 construct: transglutaminase 2 (TG2); also called TG2 K30A
T3 sequence (P21980 whole entry K30A): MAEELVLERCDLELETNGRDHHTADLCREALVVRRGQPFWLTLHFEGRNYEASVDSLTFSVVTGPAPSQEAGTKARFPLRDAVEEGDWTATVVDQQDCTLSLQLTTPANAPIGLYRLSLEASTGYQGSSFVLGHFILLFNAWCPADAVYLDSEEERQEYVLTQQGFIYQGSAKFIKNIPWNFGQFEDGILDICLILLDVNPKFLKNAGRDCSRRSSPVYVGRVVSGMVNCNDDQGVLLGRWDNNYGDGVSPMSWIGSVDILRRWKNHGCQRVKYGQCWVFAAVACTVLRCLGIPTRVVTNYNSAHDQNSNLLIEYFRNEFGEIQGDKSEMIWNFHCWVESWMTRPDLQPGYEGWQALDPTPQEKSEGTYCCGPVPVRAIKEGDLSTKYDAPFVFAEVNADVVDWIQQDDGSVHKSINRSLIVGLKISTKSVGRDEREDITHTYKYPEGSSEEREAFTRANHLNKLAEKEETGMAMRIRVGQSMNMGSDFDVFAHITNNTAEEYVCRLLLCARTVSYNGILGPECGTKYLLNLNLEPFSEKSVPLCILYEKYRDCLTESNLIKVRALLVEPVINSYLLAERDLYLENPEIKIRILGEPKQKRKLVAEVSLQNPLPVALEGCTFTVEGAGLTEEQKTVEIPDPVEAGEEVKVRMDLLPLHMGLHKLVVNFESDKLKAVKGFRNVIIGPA
Described as above.

Test [4] concerns the target T4, transglutaminase 2 mutant R116A (Homo sapiens (assumed; human TG2 …, UniProt P21980, R116A).
T4 construct: transglutaminase 2 (TG2); also called TG2 R116A
The description is as above.

The target of test [5] is T1, transglutaminase 2, wild type. The test can be described thus: SAXS; complex of TG2-GDP and 679-14-E06 Fab in solution, data at 9 mg/ml; molecular weight estimates and ab initio models; beamline P12, PETRA III.

The source of these data is publication PMC4571865, “Structural Basis for Antigen Recognition by Transglutaminase 2-specific Autoantibodies in Celiac Disease*” (The Journal of Biological Chemistry, 2015).

T4 sequence (P21980 whole entry R116A): as the sequence (P21980 whole entry K30A) above, with A30K, R116A counted along it
T2 sequence (P21980 whole entry R19S): as the sequence (P21980 whole entry K30A) above, with R19S, A30K counted along it
T1 sequence (P21980 whole entry): as the sequence (P21980 whole entry K30A) above, with A30K counted along it

B1: anti-TG2 antibody 679-14-E06 (human IgG1) (antibody, V domains shown)
VH: EVQLVQSGAEVKKPGESLKISCKGSGYSFTSYWIGWVRQMPGKGLEWMGIIYPGDSDTRYSPSFQGQVTISADKSISTAYLQWSSLKASDTAMYYCARPHYYDSLDAFDIWGQGTMVTVSS
VL: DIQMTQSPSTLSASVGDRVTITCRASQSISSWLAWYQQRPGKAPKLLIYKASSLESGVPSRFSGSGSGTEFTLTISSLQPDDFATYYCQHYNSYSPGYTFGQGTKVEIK
notes: constant region of human IgG1; IgG1; derived from a single gut IgA plasma cell of a celiac disease patient; Residues 142-149, 198-207, 225-231 of the heavy chain and 172-175, 228-234 of the light chain lack electron density in PDB 4ZD3 (IMGT numbering); source: HEK 293F cells, co-transfected heavy and light chain plasmids; purified from culture supernatant (protein G column)
For the molecule B1, the Kd (commonly the equilibrium constant for the complex coming apart) in test [1] was found to be 0.0555 µM; in test [2] it was 0.147 µM; in test [3] it was 0.0499 µM; in test [4], 0.24 µM. Also, the koff (commonly the first-order rate constant of dissociation) in test [1] amounted to 0.00474 s⁻¹; in test [2], 0.00525 s⁻¹; in test [3] it was 0.00353 s⁻¹; in test [4], 0.00736 s⁻¹. Besides, the kon (as a rule, the second-order rate constant of association) in test [1] came to 85300 M⁻¹ s⁻¹; in test [2], 35800 M⁻¹ s⁻¹; in test [3] it was 70800 M⁻¹ s⁻¹; in test [4] it was 30600 M⁻¹ s⁻¹.

B2: Fab fragment of antibody 679-14-E06 (Fab, V domains shown)
VH: B1 VH
VL: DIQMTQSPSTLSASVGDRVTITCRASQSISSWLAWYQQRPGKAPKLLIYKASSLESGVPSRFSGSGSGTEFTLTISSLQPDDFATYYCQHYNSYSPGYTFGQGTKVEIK
notes: Electron density is missing for residues 142-149, 198-207, 225-231 of the heavy chain and 172-175, 228-234 of the light chain in PDB 4ZD3 (IMGT numbering); also called the Fab fragment; source: HEK 293F cells, co-transfected heavy and light chain plasmids; purified from culture supernatant (protein L column)
For the molecule B2, the stoichiometry N (in general, a count of units in the complex or per binding partner) in test [5] is 1.
